Assay results: patent US20060069055, “Delivery of polynucleotides” (published 2006)

The binders below were run against T1, NF-kB p50/p50 homodimer (Homo sapiens, UniProt P19838 P19838:1-433) (assay: EMSA). Conditions: protein: extract; tags: nuclear extract of LPS-stimulated THP-1 cells; chain copies: 2 (stated).
Description: (§1) The EMSA assay was employed to characterize oligonucleotide decoys for the NF-κB transcription factor. […] Using the above modified oligonucleotides to compete for binding for the above-mentioned NF-κB family members, it was possible to compare the binding affinity of these oligonucleotides against the high affinity radiolabeled probe and each other. This assay has also enabled the design of a decoy which selectively binds particular members of the NF-κB family. By using increasing concentrations of various oligonucleotides, it was observed that, by deleting or changing targeted residues in the binding site, it was possible to specifically decrease the binding of the decoy molecule to p50/p50 homodimers, while retaining the affinity for p65/p50 and cRel/p50 heterodimers.
(§2) The NF-κB gel shift assays (EMSA) were performed as follows. A double-stranded oligonucleotide containing a consensus NF-κB binding site (5′ […].GGC 3′) (SEQ ID NO: 26) was end-labeled with γ³²P-ATP using T4 Polynucleotide Kinase (Promega). […] The dried gels were imaged and quantitated using a Typhoon 8600 Phosphorlmager (Amersham) and ImageQuant software. […]

T1 sequence (P19838 1-433, one chain of several): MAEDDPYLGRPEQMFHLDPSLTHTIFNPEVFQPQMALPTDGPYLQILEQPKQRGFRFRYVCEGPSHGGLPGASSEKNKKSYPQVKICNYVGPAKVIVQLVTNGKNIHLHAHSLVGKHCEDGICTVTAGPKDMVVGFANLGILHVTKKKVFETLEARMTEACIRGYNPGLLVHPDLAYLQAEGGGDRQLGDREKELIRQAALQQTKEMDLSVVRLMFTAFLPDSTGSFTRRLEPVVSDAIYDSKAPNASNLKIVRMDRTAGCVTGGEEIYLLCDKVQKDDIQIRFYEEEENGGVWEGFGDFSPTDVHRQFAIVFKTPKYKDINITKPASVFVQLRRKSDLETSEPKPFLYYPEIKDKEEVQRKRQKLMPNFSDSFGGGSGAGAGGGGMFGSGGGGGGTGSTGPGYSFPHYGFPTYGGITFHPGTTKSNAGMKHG

| Binder | IC50 |
| --- | --- |
| 153/154 PO/H11 (dsDNA, strand 153 PO; strand 154 PS at the 11 most 3' linkages) DNA 1: AGTTGAGGACTTTCCAGGC DNA 2: GCCTGGAAAGTCCTCAACT | 40 fold molar excess |

What follows are binders tested against T2, HIF-1 complex (HIF-1alpha containing) (UniProt Q16665;P27540 Q16665:1-826,P27540:2-789) (assay: competition). Conditions: protein: extract; tags: nuclear extract, TransAM HIF-1 kit Active Motif 47096.
Description: (§3) To assess the relative affinities of oligonucleotides for a HIF-1α containing complex, the HIF-1 TransAM assay (Active Motif, Catalog # 47096) was utilized. The assay was performed according to manufacturer's instructions. Briefly, a double-stranded oligonucletide containing the hypoxia response element (HRE) was immobilized on a 96-well plate. A nuclear extract containing HIF-1 alpha complexes was incubated and allowed to bind to the immobilized oligonucleotide. The unbound material was washed away and the bound HIF-1α detected using an antibody that specificially recognizes HIF-1α. The anti-HIF-1α antibody was detected by a secondary antibody labeled with horseradish peroxidase (HRP), and the amount of HRP in each well was measured using a colorimetric substrate reaction and read using a microplate spectrophotometer.
(§4) The ability of candidate decoy molecules to compete for binding of HIF-1α to the HRE element immobilized on the plate were measured and compared to reveal relative binding affinities. Candidate decoys were added in increasing molar ratios (relative to the amount of oligo immobilized on the plate) to compete for binding to the HIF-1α containing complexes. […] A well containing a competing decoy able to bind HIF-1α with high affinity would give a lower absorbance reading as compared to a decoy with low affinity for HIF-1α. All potential decoys were then compared and ranked in order to assess their relative binding affinities.
(§5) The screen was conducted using different decoy concentrations. For each UV absorbance reading, normalization was done by calculating the ratio of absorbance readings of sample vs. wild type control. The bigger ratio represents less competition of binding with HIF-1α when compared with wild-type control. The smaller (smaller than 1.0 or close to 1.0) ratios represent better binding or better competition.

T2 sequence (Q16665 whole entry, chain 1 of 2): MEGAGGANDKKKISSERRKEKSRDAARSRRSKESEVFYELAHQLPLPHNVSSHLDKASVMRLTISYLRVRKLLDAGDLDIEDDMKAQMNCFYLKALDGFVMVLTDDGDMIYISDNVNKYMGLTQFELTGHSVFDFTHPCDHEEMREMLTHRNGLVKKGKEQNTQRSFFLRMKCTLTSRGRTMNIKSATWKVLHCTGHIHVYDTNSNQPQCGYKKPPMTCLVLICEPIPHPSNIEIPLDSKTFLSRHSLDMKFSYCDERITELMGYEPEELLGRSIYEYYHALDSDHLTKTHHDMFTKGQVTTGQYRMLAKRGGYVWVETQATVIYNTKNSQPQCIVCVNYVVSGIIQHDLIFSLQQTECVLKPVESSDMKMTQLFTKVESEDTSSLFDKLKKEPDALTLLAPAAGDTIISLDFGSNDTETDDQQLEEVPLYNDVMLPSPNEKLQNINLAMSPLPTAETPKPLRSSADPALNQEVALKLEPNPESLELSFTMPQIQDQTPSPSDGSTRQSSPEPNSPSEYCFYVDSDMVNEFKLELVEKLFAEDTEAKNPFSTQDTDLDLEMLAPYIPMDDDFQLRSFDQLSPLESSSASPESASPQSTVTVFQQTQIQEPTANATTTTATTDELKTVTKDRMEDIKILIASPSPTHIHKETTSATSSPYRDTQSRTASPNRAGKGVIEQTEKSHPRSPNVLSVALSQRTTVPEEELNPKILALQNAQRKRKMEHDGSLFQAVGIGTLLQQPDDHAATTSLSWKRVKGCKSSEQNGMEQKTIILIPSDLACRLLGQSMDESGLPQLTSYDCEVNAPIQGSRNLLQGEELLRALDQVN
T2 sequence (P27540 2-789, chain 2 of 2): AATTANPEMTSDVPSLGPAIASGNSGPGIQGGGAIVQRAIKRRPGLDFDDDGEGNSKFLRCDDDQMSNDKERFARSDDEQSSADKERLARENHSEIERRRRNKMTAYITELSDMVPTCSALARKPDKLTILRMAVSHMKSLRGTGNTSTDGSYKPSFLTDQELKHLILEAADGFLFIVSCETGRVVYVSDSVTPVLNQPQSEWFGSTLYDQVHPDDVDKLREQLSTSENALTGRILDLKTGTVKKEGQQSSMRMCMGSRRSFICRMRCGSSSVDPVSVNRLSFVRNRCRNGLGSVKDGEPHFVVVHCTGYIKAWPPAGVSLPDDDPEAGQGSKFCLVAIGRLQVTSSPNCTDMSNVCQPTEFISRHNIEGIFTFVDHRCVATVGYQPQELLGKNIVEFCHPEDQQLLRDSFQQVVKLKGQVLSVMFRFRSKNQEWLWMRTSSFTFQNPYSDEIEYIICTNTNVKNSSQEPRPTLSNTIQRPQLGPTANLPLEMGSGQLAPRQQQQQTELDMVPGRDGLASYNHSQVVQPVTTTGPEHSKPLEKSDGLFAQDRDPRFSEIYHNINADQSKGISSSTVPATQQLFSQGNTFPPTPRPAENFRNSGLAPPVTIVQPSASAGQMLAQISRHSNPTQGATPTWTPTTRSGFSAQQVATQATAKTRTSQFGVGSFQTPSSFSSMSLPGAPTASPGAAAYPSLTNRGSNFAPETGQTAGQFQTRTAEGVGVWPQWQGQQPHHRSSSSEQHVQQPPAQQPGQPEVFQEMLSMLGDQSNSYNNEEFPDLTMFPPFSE

| Binder | binding signal |
| --- | --- |
| HIF decoy 841/842 double (dsDNA) DNA 1: AGCGGACGTGCAGAAGTTGCACGTCCTCT DNA 2: AGAGGACGTGCAACTTCTGCACGTCCGCT | 0.95 ratio to wild-type control absorbance |
| HIF decoy 853/854 (dsDNA) DNA 1: TTGCTTACGTGCGCCCGG DNA 2: CCGGGCGCACGTAAGCAA | 1.62 ratio to wild-type control absorbance |
| HIF decoy 805/806 (dsDNA) DNA 1: CCCCCTCGGACGTGACTCGGACCAC DNA 2: GTGGTCCGAGTCACGTCCGAGGGGG | 1.09 ratio to wild-type control absorbance |
| HIF decoy 843/844 (dsDNA) DNA 1: GTGCATACGTGGGCTCCA DNA 2: TGGAGCCCACGTATGCAC | 1.81 ratio to wild-type control absorbance |
| HIF decoy 887/888 (dsDNA) DNA 1: GGCTGCACCGTACGTGCTGATC DNA 2: GATCAGCACGTACGGTGCAGCC | 1.94 ratio to wild-type control absorbance |
| HIF decoy 821/822 (dsDNA) DNA 1: CGCGAGCGTACGTGCCTCAGG DNA 2: CCTGAGGCACGTACGCTCGCG | 1.26 ratio to wild-type control absorbance |
| HIF decoy 801/802 (dsDNA) DNA 1: GCCCTACGTGCTGTCTCA DNA 2: TGAGACAGCACGTAGGGC | 1.83 ratio to wild-type control absorbance |
| HIF decoy 849/850 (dsDNA) DNA 1: GCCTACACGTGGGTTCCC DNA 2: GGGAACCCACGTGTAGGC | 1.96 ratio to wild-type control absorbance |
| HIF decoy 879/880 (dsDNA) DNA 1: GGCTGCTGCAGACGTGCAGGTC DNA 2: GACCTGCACGTCTGCAGCAGCC | 1.98 ratio to wild-type control absorbance |
| HIF decoy 891/892 (dsDNA) DNA 1: GGCTGCTGCATACGTGCAGGTC DNA 2: GACCTGCACGTATGCAGCAGCC | 1.6 ratio to wild-type control absorbance |
| HIF decoy 859/860 (dsDNA) DNA 1: ACCGTACGTGCTGATC DNA 2: GATCAGCACGTACGGT | 1.85 ratio to wild-type control absorbance |
| HIF decoy 869/870 (dsDNA) DNA 1: AGCAGACGTGCAGGGT DNA 2: ACCCTGCACGTCTGCT | 1.93 ratio to wild-type control absorbance |
| HIF decoy 855/856 (dsDNA) DNA 1: GTGTGTACGTGCAGGAAA DNA 2: TTTCCTGCACGTACACAC | 1.21 ratio to wild-type control absorbance |
| HIF decoy 871/872 (dsDNA) DNA 1: ACCGTACGTGCTGCCA DNA 2: TGGCAGCACGTACGGT | 1.87 ratio to wild-type control absorbance |
| HIF decoy 851/852 (dsDNA) DNA 1: CGGAGTACGTGACGGAGC DNA 2: GCTCCGTCACGTACTCCG | 1.08 ratio to wild-type control absorbance |
| HIF decoy 845/846 (dsDNA) DNA 1: GAGCGTACGTGCCTCAGG DNA 2: CCTGAGGCACGTACGCTC | 1.57 ratio to wild-type control absorbance |

The binders below were run against T1, NF-kB p50/p50 homodimer (assay: EMSA; competition against labelled probe 113/114). Conditions: protein: extract; tags: nuclear extract of LPS-stimulated THP-1 cells; chain copies: 2 (stated).
Description: as §1, §2

| Binder | IC50 |
| --- | --- |
| 153/154 H5/PO (dsDNA, PS at the 5 most 3' linkages of strand 153, strand 154 PO) DNA 1: AGTTGAGGACTTTCCAGGC DNA 2: GCCTGGAAAGTCCTCAACT | 83 fold molar excess |
| 153/154 PO (dsDNA) DNA 1: AGTTGAGGACTTTCCAGGC DNA 2: GCCTGGAAAGTCCTCAACT | 92 fold molar excess |

The binders below were run against T2, HIF-1 complex (HIF-1alpha containing) (assay: competition; TransAM; higher ratio = poorer competition; scramble 2.19). Conditions: protein: extract; tags: nuclear extract, TransAM HIF-1 kit Active Motif 47096.
Description: as §3, §4, §5

| Binder | binding signal |
| --- | --- |
| HIF decoy 873/874 (dsDNA) DNA 1: TCCGTACGTGCTGCGT DNA 2: ACGCAGCACGTACGGA | 2.04 ratio to wild-type control |
| HIF decoy 865/866 (dsDNA) DNA 1: AGCAGACGTGCAGGCA DNA 2: TGCCTGCACGTCTGCT | 2.01 ratio to wild-type control |
| HIF decoy 863/864 (dsDNA) DNA 1: AGCAGACGTGCAGGAT DNA 2: ATCCTGCACGTCTGCT | 2.02 ratio to wild-type control |

These binders were tested against T2, HIF-1 complex (HIF-1alpha containing) (assay: competition; smaller is better competition; TransAM plate assay). Conditions: protein: extract; tags: nuclear extract, TransAM HIF-1 kit Active Motif 47096.
Description: as §3
The ability of candidate decoy molecules to compete for binding of HIF-1α to the HRE element immobilized on the plate were measured and compared to reveal relative binding affinities. […] A well containing a competing decoy able to bind HIF-1α with high affinity would give a lower absorbance reading as compared to a decoy with low affinity for HIF-1α. […]
The screen was conducted using different decoy concentrations. For each UV absorbance reading, normalization was done by calculating the ratio of absorbance readings of sample vs. wild type control. […]

| Binder | binding signal |
| --- | --- |
| HIF decoy 819/820 double (dsDNA) DNA 1: GAAATACGTGCGCTTTGTGTGTACGTGCAGGAA DNA 2: TTCCTGCACGTACACACAAAGCGCACGTATTTC | 0.88 ratio to wild-type control absorbance |
